Here are results for eleven sequences from patent US20180362926.

Common to all, as to assay: cell_activity
The test system of one data set is SBS53810 ZFN. Conditions: pair 53810:55255, K562, 500 ng/ZFN.
For another data set, the system named is SBS55254 ZFN. To be noted: pair 55248:55254, K562, 500 ng/ZFN.
The subject of another data set is SBS55255 ZFN. Conditions: pair 53810:55255, K562, 500 ng/ZFN.
A further data set concerns SBS55260 ZFN. To be noted: pair 55248:55260, K562, 500 ng/ZFN.
The subject of data set [1] is SBS68796 ZFN Qm5 in F1,F3 (nQm5s [sic]),F4. To be noted: 68796-2A-68813, T cells, 12 ug mRNA; off-target at background.
The test system of data set [2] is SBS68812 ZFN Qm5 in F1,F3 (nQm5s [sic]),F4; FokI R416E. To be noted: 68812-2A-68813, T cells, 12 ug mRNA.
Data set [3] relates to SBS68876 ZFN Qm5 in F1,F3 (nQm5s [sic]),F4; FokI K525S. Conditions: 68876-2A-68877, T cells, 12 ug mRNA.
The next data set has as its system SBS53863 ZFN. Conditions: pair 53860:53863, K562, 500 ng/ZFN.
The next data set concerns SBS55287 ZFN. To be noted: pair 53856:55287, K562, 500 ng/ZFN.
Data set [4] has as its system SBS68815 ZFN Qm5 in F1,F3,F5; FokI R416E. Conditions: 55266-2A-68815, T cells, 12 ug mRNA.
For data set [5], the system named is SBS68879 ZFN Qm5 in F1,F3,F5; FokI K525S. To be noted: 55266-2A-68879, T cells, 12 ug mRNA.
The test system of the next data set is SBS57531 ZFN. To be noted: pair 72732/57531, background corrected.
A further data set has as its system SBS68957 ZFN FokI K525S. Conditions: pair 57071/68957, background corrected.
The test system of a further data set is SBS55204 ZFN. To be noted: pair 55204:53759, K562, 500 ng/ZFN.
A further data set deals with SBS55229 ZFN. To be noted: pair 55229:53785, K562, 500 ng/ZFN.
The test system of another data set is SBS53785 ZFN. To be noted: pair 55229:53785, K562, 500 ng/ZFN.
In another data set the test system is SBS57071 ZFN. Conditions: pair 57071/68957, background corrected.
The test system of another data set is SBS72748 ZFN FokI Q481D. Conditions: pair 72748/68957, background corrected.
In a further data set the test system is SBS53759 ZFN. Conditions: pair 55204:53759, K562, 500 ng/ZFN.
For the next data set, the system named is SBS52742 ZFN. To be noted: pair 52774:52742, K562, 500 ng/ZFN.
The subject of a further data set is SBS53909 ZFN. Conditions: pair 53885:53909, K562, 500 ng/ZFN.

In the data set on SBS53810 ZFN, “AGGATTCGGAACCCAATCACTG (double strand) [TCRA site of 53810]” gave an activity of 91.5 % NHEJ.

With “CTCCTGAAAGTGGCCGGGTTTAATCTGC (double strand) [TCRA site D left]”, the activity is 96.2 % NHEJ in the data set with SBS55254 ZFN; 91.5 % NHEJ with SBS55255 ZFN; 93 % NHEJ in the data set with SBS55260 ZFN; 99.3 % indels in data set [1]; 99.9 % indels in data set [2]; 99.2 % indels in data set [3].

With “TTCAAGAGCAACAGTGCTGTGGCCTGGA (double strand) [TCRA site F right]”, the activity with SBS53863 ZFN stood at 87.3 % NHEJ; in the data set on SBS55287 ZFN it was 74.8 % NHEJ.

Consider “AACAGGTAAGACAGGGGTCTAGCCTGGG (double strand) [TCRA site E right]”, for which the activity in data set [4] came to 97.6 % indels; in data set [5], 96.3 % indels.

Consider “GAGTAGCGCGAGCACAGCTAAGGCCACG (double strand) [B2M site of 57531]”, for which the activity with SBS57531 ZFN was 95.8 % indels; in the data set on SBS68957 ZFN FokI K525S it was 91.6 % indels.

Sequence “TTGCTCTTGAAGTCCATAGACCTCATGT (double strand) [TCRA site of 55204]” yielded an activity in the data set with SBS55204 ZFN of 87.7 % NHEJ.

In the data set on SBS55229 ZFN, “CTGTTGCTCTTGAAGTCCATAGACCTCA (double strand) [TCRA site of 55229]” came in with an activity of 93.6 % NHEJ.

“CTGTGGCCTGGAGCAACAAATCTGACTT (double strand) [TCRA site of 53785]” showed an activity in the data set on SBS53785 ZFN of 93.6 % NHEJ.

“GCCACGGAGCGAGACATCTCGGCCCGAA (double strand) [B2M site of 57071]”: the results for the activity in the data set on SBS57071 ZFN and with SBS72748 ZFN FokI Q481D were 91.6 % indels and 93.4 % indels, respectively.

“GTGCTGTGGCCTGGAGCAACAAATCTGA (double strand) [TCRA site of 53759]” had an activity in the data set on SBS53759 ZFN of 87.7 % NHEJ.

For “TCCTCCTGAAAGTGGCCGGGTTTAATCT (double strand) [TCRA site G right]”, the activity in the data set on SBS52742 ZFN came to 84.4 % NHEJ; in the data set with SBS53909 ZFN, 90.2 % NHEJ.
